Assay results from PMC4610412.

Tests used:
FFpSPR = experiment: NMR titration; conditions: phospho-S3 of peptide
pCdc25C (Homo sapiens) [1] = experiment: NMR titration; conditions: phospho-T5 of peptide (pT48)
trans-locked inhibitor = experiment: NMR titration; conditions: phospho-S3, trans-locked alkene isostere
pCdc25C (Homo sapiens) [2] = experiment: ITC; conditions: phospho-T5 of peptide (pT48)

| Kd (FFpSPR) [µM] | Kd (pCdc25C (Homo sapiens) [1]) [µM] | Kd (trans-locked inhibitor) [µM] | Kd (pCdc25C (Homo sapiens) [2]) [µM] | Binder |
| --- | --- | --- | --- | --- |
| 43 | 6 | 53 |  | ADEEKLPPGWEKRMSRSSGRVYYFNHITNASQWERPSGNSS [Pin1 (WW domain site, full-length Pin1) WW, Q13526] |
|  |  |  | 13 | ADEEKLPPGWEKRMSRSSGRVYYFNHITNASQWERPSGNSS [Pin1 WW domain (isolated) WW, Q13526] |
